Assay results from the supplement of paper PMC12042874.
± gives the uncertainty stated by the source.

Key:
[1] = amyloid nucleation score (Sup35N fusion, yeast selection) (log enrichment); library NNK2; higher = more nucleation; inactive = no reads after selection
Outline: (§1)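 The nucleation score is the log enrichment of output over input reads, calculated with DiMSum and centred on the mode score of non-aggregating sequences. Sequences with under 100 input reads were excluded. Reads came from Illumina sequencing of plasmid inserts from psi-negative yeast expressing Sup35N fused to peptides of 20 random codons, induced 24 hours with 100 μM copper sulfate and grown 7 days at 30°C without adenine and uracil.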

[2] = amyloid nucleation score (Sup35N fusion, yeast selection) (log enrichment); library NNK1; higher = more nucleation; inactive = no reads after selection
Outline: as §1

| Substance | amyloid nucleation score [1] | amyloid nucleation score [2] |
| --- | --- | --- |
| AKLDWHIRTAEWGLPKLLLT | -0.467 ± 0.54 | inactive |
| YGSDGCKRRKGSTALAIVTY | – | 0.423 ± 0.41 |
| YGSNWLEGVGLYRGVARQSW | – | -0.781 ± 0.43 |
| YGVMSLRGVRLVQDVKTRSF | – | -0.849 ± 0.62 |
| YHGGYGSSHMWRFVRCIKAY | – | 0.168 ± 0.27 |
| YHLERKGPAFVNFLTMGSCR | – | -0.908 ± 0.85 |
| YHVWTFWRRLETRINFQM | – | 1.13 ± 0.98 |
| YIFENLARAPMLQ | – | 0.259 ± 0.74 |
| YIGRGNMHELFHRLLRGCVL | – | inactive |
| YIKGDQLVVVDTYMFRVKL | – | -0.991 ± 2.4 |
| YILDGESAYFVLLYEKVYFS | – | -0.403 ± 0.53 |
| YINLSYPIFTNSDLFGPCWH | – | 3.45 ± 0.12 |
| YIPTCAGDWLQFNYYNLMCW | – | 0.149 ± 0.38 |
| YIYRDTYLRTPKLGSHMYCL | – | inactive |
| YKAERVKSVRTITPRVTLLW | – | -0.331 ± 0.61 |
| YKKRMLSLWYYGAGIQHRAL | – | 0.412 ± 0.43 |
| YKLFGFFGRHPVNWYV | – | 0.344 ± 0.51 |
| YKMYWISVAVLKRYNLLHQS | – | -0.111 ± 0.44 |
| YKNTCQLYPRVFTPWWYERM | – | 0.173 ± 0.67 |
| YKSLDGF | – | 0.704 ± 0.93 |
| YKWGWAVYHIGHGCRVWRWT | – | 1.49 ± 0.4 |
| YKYFCGYKLSVEDLLLSVYQ | – | 0.188 ± 0.27 |
| YLCPFIYMAHSGSSDVCLIV | – | 3.38 ± 0.11 |

| Substance | amyloid nucleation score [1] | amyloid nucleation score [2] |
| --- | --- | --- |
| YLCSSVPLSEHNLILSITWD | – | inactive |
| YLDCIYRGKIISIHTGSGIL | – | -0.449 ± 0.29 |
| YLDLFTGSSH | – | -0.368 ± 0.27 |
| YLDSILYMGLTDLVWQVGTT | – | -0.334 ± 0.43 |
| YLEVPMKFFEFFGFRPVAFV | – | -0.121 ± 0.54 |
| YLFMNRGTVSWRSVYDRV | – | 0.104 ± 0.42 |
| YLGWDRNRDYEWAIDASRAN | – | inactive |
| YLIFKSFK | – | 1.25 ± 0.61 |
| YLILLWWTNCRARAKERVDR | – | -0.155 ± 1.1 |
| YLIWLLGFANILYHYTL | – | inactive |
| YLKGVG | – | 0.104 ± 0.74 |
| YLLLLDGGPSPVLAIRHVNG | – | -0.989 ± 0.76 |
| YLLQSAIFGAGVHT | – | 0.672 ± 0.39 |
| YLMKRSWTGMIGLGTQVKSS | – | 0.9 ± 0.58 |
| YLNSFLYVMLFLVPDRSVTR | – | 6.18 ± 0.068 |
| YLNTLRR | – | inactive |
| YLQIWRLSRRSILL | – | inactive |
| YLRRHQRNLPEQCCEAGINV | – | -1.37 ± 1.5 |
| YLRVNAHMLDYSF | – | -0.513 ± 1 |
| YLSFSSAHDDIEWVGISCR | – | inactive |
| YLTQLV | – | 0.528 ± 0.38 |
| YLVMRMMVLRMAKPKIVGRD | – | 5.524 ± 0.051 |
| YLVTGVGYGGCNIRLWE | – | 0.355 ± 0.83 |

| Substance | amyloid nucleation score [1] | amyloid nucleation score [2] |
| --- | --- | --- |
| YMKMMYAIYCLWLRHYSMLF | – | inactive |
| YMRGGQDFYYVQDIVVFLLL | – | 4.24 ± 0.094 |
| YMVHMK | – | 0.121 ± 0.76 |
| YMYEMGICFELDDTHEG | – | 0.608 ± 0.55 |
| YNLWIGLCRIMEEVILGGT | – | -0.863 ± 0.61 |
| YNRLKSIV | – | 1.51 ± 0.72 |
| YNVIWSMVGEYLHSSCYGPV | – | inactive |
| YNVKVMCSVQSEMRGIT | – | 0.465 ± 0.68 |
| YNVSHLIRV | – | -0.959 ± 0.26 |
| YPCNLFCMMTLLNYLGSSVA | – | 6.49 ± 0.074 |
| YQDAGVLGRLPHLFTNGSFT | – | 0.021 ± 0.93 |
| YQDFAGDARFGEIRWYYPKS | – | 0.125 ± 0.41 |
| YQDVVDSDD | – | -0.762 ± 0.64 |
| YQSFLASACSSEPIRFSKQH | – | 0.915 ± 0.66 |
| YRFRWRNWSMWVSHKAHKAS | – | 0.851 ± 0.74 |
| YRLILVANVQMDHWES | – | -0.38 ± 0.44 |
| YRVHVCQEWMGSWCCGCVKG | – | 2.54 ± 0.2 |
| YRVSNVNFSFATFFTHAPVR | – | 1.76 ± 0.16 |
| YRVVACMGCALRLVWLARYR | – | -0.31 ± 0.3 |
| YSCMGECFTC | – | 7.89 ± 0.067 |
| YSFRAIDTQLTQTLTWLLIR | – | -0.563 ± 0.53 |
| YSGRRQETNVGRLRSNWGGL | – | -0.568 ± 0.39 |
| YSGWEEITVFFSDARV | – | -0.115 ± 1.3 |

| Substance | amyloid nucleation score [1] | amyloid nucleation score [2] |
| --- | --- | --- |
| YSHFEQYMDNFNIMNYDYRD | – | -0.879 ± 1.2 |
| YSIFTIKGRDCKLFITNNVS | – | 7.468 ± 0.045 |
| YSLFAGLREVSMDVCNDV | – | 0.39 ± 0.5 |
| YSLLY | – | -0.652 ± 0.66 |
| YSLNFYAMPRSSI | – | 3.76 ± 0.1 |
| YSLTYVNSYLFGINDCKGPD | – | 8.164 ± 0.054 |
| YSMLCLKYL | – | inactive |
| YSNFFQHRTWMIDCSFPTGL | – | 0.147 ± 0.37 |
| YSNLIDGS | – | 7.378 ± 0.047 |
| YSNLYFSLNNGNPVLKGYNG | – | -0.17 ± 0.65 |
| YSNSGMGNV | – | 0.568 ± 0.21 |
| YSRLSCWYYAPGVSLGVIKW | – | 0.483 ± 0.48 |
| YSRMQVAIYMYLVE | – | 3.19 ± 0.17 |
| YSRSVGYRRYFI | – | inactive |
| YSSGKELTGLLDKKFIIGLD | – | -0.186 ± 0.39 |
| YSTLRGFNYVFLKYIVK | – | 0.724 ± 0.54 |
| YSVMSSRSGIVGSWVHRGVQ | – | 0.38 ± 0.32 |
| YSVVRCRVANC | – | 0.263 ± 0.61 |
| YSYKCGGVRTSTSFLSMLFV | – | 0.811 ± 0.18 |
| YSYMTYRALFVVTSCLSRWG | – | 1.11 ± 0.66 |
| YTCYIVKGLVVLTVACGG | – | -0.225 ± 0.98 |
| YTDFRQSLLTVT | – | 0.07 ± 0.43 |
| YTEIMGL | – | -0.046 ± 0.31 |

| Substance | amyloid nucleation score [1] | amyloid nucleation score [2] |
| --- | --- | --- |
| YTFGDAGHPESAMVTCRAYS | – | -0.007 ± 0.33 |
| YTGSL | – | -0.498 ± 0.63 |
| YTRSVL | – | 0.2 ± 0.23 |
| YTVVLEKTKVMYTVAPPRSL | – | -1.04 ± 2.4 |
| YTWIEHAWSS | – | -0.062 ± 0.55 |
| YTYTQTFLV | – | -0.255 ± 0.47 |
| YTYVSMPGR | – | -0.358 ± 0.34 |
| YVAISHGQTPSLYL | – | -0.827 ± 1.5 |
| YVCFRVDTCRLVCVRRWLNY | – | 0.706 ± 0.51 |
| YVESGTFTDPRFWVSFAVCF | – | 0.791 ± 0.54 |
| YVEVQVIKWVMKSEVHRGAW | – | 1.27 ± 0.48 |
| YVFLRFVSVCSYN | – | 4.9 ± 0.05 |
| YVFVWMRYTSFWVMNTFYSS | – | 0.193 ± 0.46 |
| YVGSDLFYRCQKNKYHRHSL | – | -0.215 ± 0.97 |
| YVGSRSAVNIGIICGSRLNE | – | -0.739 ± 1.5 |
| YVIMWGGLTLYLWGCRKWWE | – | -0.103 ± 0.43 |
| YVIRFVKCR | – | 2.23 ± 0.55 |
| YVLWNRASIAPYIQHGLRVL | – | 1.19 ± 0.19 |
| YVMAESSASNDQAVGNWRGR | – | -0.643 ± 0.97 |
| YVPPSMMLNGGDPEYSVGLK | – | 0.082 ± 0.89 |
| YVQFYGWRTWDLYWYLEWVV | – | -1.07 ± 0.8 |
| YVRFYLFNFVGLRQKFMI | – | 2.74 ± 0.17 |
| YVRMACMLGLHSRYWMHRVV | – | -0.267 ± 0.6 |

| Substance | amyloid nucleation score [1] | amyloid nucleation score [2] |
| --- | --- | --- |
| YVSAGRCKYDDLPTRV | – | 0.133 ± 0.67 |
| YVVCKGIRSSSWDSWVSKR | – | -0.393 ± 0.28 |
| YVVCYFDNLFLSSISLSLRA | – | 8.521 ± 0.058 |
| YWAIVW | – | -0.128 ± 0.39 |
| YWEGWGKTRFKCNGSRSRAG | – | -1.01 ± 1.3 |
| YWFFSIMSSYSVNTQM | – | 1.64 ± 0.8 |
| YWLNNYYVVGNIS | – | 2.57 ± 0.25 |
| YYESRNWSILFRLINMF | – | -0.078 ± 0.46 |
| YYFRHMLKDNHLVIV | – | inactive |
| YYGVWVDREHWL | – | 0.628 ± 0.48 |
| YYISLFTEDMSVRRVNQTCF | – | -2.03 ± 0.96 |
| YYLDGTGLWVNCVRMARGCG | – | 1.16 ± 0.78 |
| YYLEGSNALYIKVDRILRLL | – | -0.187 ± 0.54 |
| YYLSCNDSKGYSMRQFMYDV | – | -0.139 ± 0.81 |
| YYLSLGLKLMSMVPVKSTY | – | inactive |
| YYMMTKRGFNMILCCCCRCF | – | 0.667 ± 0.2 |
| YYNNLRVSSYQSKFPIMAMF | – | inactive |
| YYPNPMQPW | – | -0.526 ± 0.47 |
| YYSHIIQAGCWVVYRDVRLF | – | 0.52 ± 0.88 |
| YYSLAVLTSLRARKSTVFND | – | -1.16 ± 0.78 |
| YYTNWQEGYRVGRFRCDGHN | – | inactive |
| YYYEPLFPRELHSQLYLL | – | -0.268 ± 0.8 |
